The series concerns GST-EZH2. Kind of series: Alpha assay (saturation). The conditions noted are these: RNA-protein binding buffer: 50 mM Tris-HCl pH 7.9, 10 mM beta-ME, 10% glycerol, 5 mM MgCl2, 100 mM KCl, 0.1% NP-40; EMSA 1 h at RT, 1 ug His-EZH2, 0.035 pmol ….

LINC00301 (Alpha assay) displayed a K half of 228 nM.

Values taken from PMC7466809.
